{
  "source": "paper PMC9063426",
  "about": "“MAP kinases differentially bind and phosphorylate NOS3 via two unique NOS3 sites” (FEBS Open Bio, 2022)",
  "binders": {"B1": {"name": "Active GST-JNK1α1 (SignalChem) (enzyme, UniProt P45983-2 1-384, looked up)", "chain": "MSRSKRDNNFYSVEIGDSTFTVLKRYQNLKPIGSGAQGIVCAAYDAILERNVAIKKLSRPFQNQTHAKRAYRELVLMKCVNHKNIIGLLNVFTPQKSLEEFQDVYIVMELMDANLCQVIQMELDHERMSYLLYQMLCGIKHLHSAGIIHRDLKPSNIVVKSDCTLKILDFGLARTAGTSFMMTPYVVTRYYRAPEVILGMGYKENVDLWSVGCIMGEMVCHKILFPGRDYIDQWNKVIEQLGTPCPEFMKKLQPTVRTYVENRPKYAGYSFEKLFPDVLFPADSEHNKLKASQARDLLSKMLVIDASKRISVDEALQHPYINVWYDPSEAEAPPPKIPDKQLDEREHTIEEWKELIYKEVMDLEERTKNGVIRGQPSPLAQVQQ", "modifications": "active (phosphorylated) form, sites not given; biotin by amine crosslinking to NHS-LC-LC-biotin (5:1 biotin to protein)", "notes": "Biotinylated and held on streptavidin sensors for the NOS3 experiment; also called c-Jun N-terminal kinase; source: bought: SignalChem (JNK1, Lot #X561-2), GST-purified, active"}, "B2": {"name": "NOS3 (bovine), full-length (enzyme, UniProt P29473 1-1205, looked up)", "chain": "MGNLKSVGQEPGPPCGLGLGLGLGLCGKQGPASPAPEPSRAPAPATPHAPDHSPAPNSPTLTRPPEGPKFPRVKNWELGSITYDTLCAQSQQDGPCTPRCCLGSLVLPRKLQTRPSPGPPPAEQLLSQARDFINQYYSSIKRSGSQAHEERLQEVEAEVASTGTYHLRESELVFGAKQAWRNAPRCVGRIQWGKLQVFDARDCSSAQEMFTYICNHIKYATNRGNLRSAITVFPQRAPGRGDFRIWNSQLVRYAGYRQQDGSVRGDPANVEITELCIQHGWTPGNGRFDVLPLLLQAPDEAPELFVLPPELVLEVPLEHPTLEWFAALGLRWYALPAVSNMLLEIGGLEFSAAPFSGWYMSTEIGTRNLCDPHRYNILEDVAVCMDLDTRTTSSLWKDKAAVEINLAVLHSFQLAKVTIVDHHAATVSFMKHLDNEQKARGGCPADWAWIVPPISGSLTPVFHQEMVNYILSPAFRYQPDPWKGSATKGAGITRKKTFKEVANAVKISASLMGTLMAKRVKATILYASETGRAQSYAQQLGRLFRKAFDPRVLCMDEYDVVSLEHEALVLVVTSTFGNGDPPENGESFAAALMEMSGPYNSSPRPEQHKSYKIRFNSVSCSDPLVSSWRRKRKESSNTDSAGALGTLRFCVFGLGSRAYPHFCAFARAVDTRLEELGGERLLQLGQGDELCGQEEAFRGWAKAAFQASCETFCVGEEAKAAAQDIFSPKRSWKRQRYRLSTQAEGLQLLPGLIHVHRRKMFQATVLSVENLQSSKSTRATILVRLDTAGQEGLQYQPGDHIGICPPNRPGLVEALLSRVEDPPPPTESVAVEQLEKGSPGGPPPSWVRDPRLPPCTLRQALTFFLDITSPPSPRLLRLLSTLAEEPSEQQELETLSQDPRRYEEWKWFRCPTLLEVLEQFPSVALPAPLLLTQLPLLQPRYYSVSSAPNAHPGEVHLTVAVLAYRTQDGLGPLHYGVCSTWLSQLKTGDPVPCFIRGAPSFRLPPDPYVPCILVGPGTGIAPFRGFWQERLHDIESKGLQPAPMTLVFGCRCSQLDHLYRDEVQDAQERGVFGRVLTAFSREPDSPKTYVQDILRTELAAEVHRVLCLERGHMFVCGDVTMATSVLQTVQRILATEGDMELDEAGDVIGVLRDQQRYHEDIFGLTLRTQEVTSRIRTQSFSLQERHLRGAVPWAFDPPGPDTPGP", "notes": "Nitric oxide synthase 3 (endothelial NOS), bovine, heterologously expressed; called full-length in the abstract and discussion; also called nitric oxide synthase 3; eNOS; source: E. coli BL21(DE3), purified"}},
  "settings_in_all_cases": "both partners purified",
  "key": {"[1]": {"target": "p38α, inactive (unphosphorylated), His-purified (UniProt Q16539 1-360)", "test": "BLI; N-terminally biotinylated NOS3 peptides on streptavidin sensors, inactive MAP kinases as analytes (31 to 1000 nM); 25 °C; PBS with 10% glycerol, 0.005% tween, 1 mM DTT; global one-state association-then-dissociation fit"}, "[2]": {"target": "p38α, inactive (unphosphorylated), His-purified (UniProt Q16539 1-360)", "test": "BLI; N-terminally biotinylated NOS3 peptides on streptavidin sensors, inactive MAP kinases as analytes at 31-1000 nM; 25 °C; PBS with 10% glycerol, 0.005% tween, 1 mM DTT; global one-state association-then-dissociation fit"}, "[3]": {"target": "T1, Nitric oxide synthase 3 (NOS3), bovine, full-length (bovine, UniProt P29473 1-1205)", "T1 construct": "Nitric oxide synthase 3 (endothelial NOS), bovine, heterologously expressed in E. coli; called full-length NOS3 in the abstract and discussion; also called eNOS; endothelial nitric oxide synthase; source: E. coli BL21(DE3), purified", "T1 sequence (looked up)": "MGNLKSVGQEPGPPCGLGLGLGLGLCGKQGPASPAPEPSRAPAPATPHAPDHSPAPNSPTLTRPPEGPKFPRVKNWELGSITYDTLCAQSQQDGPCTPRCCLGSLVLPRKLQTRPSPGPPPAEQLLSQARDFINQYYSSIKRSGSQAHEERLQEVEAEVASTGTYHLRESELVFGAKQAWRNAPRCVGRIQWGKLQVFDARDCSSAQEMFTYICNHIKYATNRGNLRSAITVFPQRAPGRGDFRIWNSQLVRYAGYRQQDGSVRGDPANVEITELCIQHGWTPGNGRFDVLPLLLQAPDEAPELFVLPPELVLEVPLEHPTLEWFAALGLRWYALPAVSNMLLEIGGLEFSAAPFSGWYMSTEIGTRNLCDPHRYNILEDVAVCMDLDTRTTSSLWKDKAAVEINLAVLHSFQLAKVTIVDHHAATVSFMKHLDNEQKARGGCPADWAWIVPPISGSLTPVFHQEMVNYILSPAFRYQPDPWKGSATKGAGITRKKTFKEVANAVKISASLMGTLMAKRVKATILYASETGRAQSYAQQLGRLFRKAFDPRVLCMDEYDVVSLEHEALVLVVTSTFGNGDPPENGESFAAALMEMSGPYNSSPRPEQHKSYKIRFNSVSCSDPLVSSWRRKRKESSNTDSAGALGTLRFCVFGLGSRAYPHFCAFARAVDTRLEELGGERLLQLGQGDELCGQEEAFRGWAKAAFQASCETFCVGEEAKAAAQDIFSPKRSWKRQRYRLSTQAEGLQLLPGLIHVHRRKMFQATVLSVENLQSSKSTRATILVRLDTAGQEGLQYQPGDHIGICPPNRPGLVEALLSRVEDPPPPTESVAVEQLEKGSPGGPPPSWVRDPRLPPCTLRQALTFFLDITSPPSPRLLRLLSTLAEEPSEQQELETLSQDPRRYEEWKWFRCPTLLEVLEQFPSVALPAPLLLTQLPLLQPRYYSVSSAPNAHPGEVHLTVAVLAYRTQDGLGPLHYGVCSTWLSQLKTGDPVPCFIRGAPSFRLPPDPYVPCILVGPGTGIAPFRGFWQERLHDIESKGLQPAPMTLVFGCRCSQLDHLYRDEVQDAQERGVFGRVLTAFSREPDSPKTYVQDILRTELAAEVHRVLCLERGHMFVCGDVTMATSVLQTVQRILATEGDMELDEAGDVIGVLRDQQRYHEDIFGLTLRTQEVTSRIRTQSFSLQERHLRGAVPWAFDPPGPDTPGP", "test": "BLI; biotinylated active GST-JNK1α1 on streptavidin sensors, NOS3 as analyte (25 to 800 nM); 25 °C; 50 mM Tris pH 7.4, 10 mM NaCl, 10% glycerol, 0.01% Tween-20; global one-state association-then-dissociation fit"}, "[4]": {"target": "B2", "test": "BLI; biotinylated active GST-JNK1α1 (or the fusion partner alone as control) on streptavidin sensors, NOS3 as analyte at 25-800 nM; 25 °C; 50 mM Tris pH 7.4, 10 mM NaCl, 10% glycerol, 0.01% Tween-20; global one-state association-then-dissociation fit"}, "[5]": {"target": "B1", "test": "BLI; biotinylated active GST-JNK1α1 (or the fusion partner alone as control) on streptavidin sensors, NOS3 as analyte at 25-800 nM; 25 °C; 50 mM Tris pH 7.4, 10 mM NaCl, 10% glycerol, 0.01% Tween-20; global one-state association-then-dissociation fit"}},
  "note": "Where no end group is shown, it is not given here. The star is where a group is joined. Biotin = O=C1N[C@H]2[C@H](CS[C@H]2CCCCC(=O)*)N1",
  "data": [
    {"binder": "Biotin-YKIRFNSISCSDPLVSSWRRKRKESSNTDSA (source: synthetic peptide (Biomatik))", "note": "[NOS3 AI peptide (autoinhibitory loop site), biotinylated]", "values": [
      {"measurement": "koff", "setting": "[1]", "value": 0.000968, "unit": "s⁻¹"},
      {"measurement": "kon", "setting": "[1]", "value": 15900, "unit": "M⁻¹ s⁻¹"}
    ]},
    {"binder": "Biotin-YKIRFNSISCSDPLVSSWRRKRKESSNTDSA (source: synthetic peptide, bought: Biomatik)", "note": "[AI peptide (NOS3 autoinhibitory loop site)]", "values": [
      {"measurement": "Kd", "setting": "[2]", "value": 61, "unit": "nM"},
      {"measurement": "koff", "setting": "[2]", "value": 0.00096, "unit": "s⁻¹"},
      {"measurement": "kon", "setting": "[2]", "value": 16000, "unit": "M⁻¹ s⁻¹"}
    ]},
    {"binder": "Biotin-CTPRRCLGSLVFPRKLQGRPSPGPPA (cysteine pairing not given here, Human NOS3, N-terminal MAP kinase (NtMAP) site with the S114 site, unphosphorylated; source: synthetic peptide (Biomatik))", "note": "[NOS3 NtMAP peptide (N-terminal MAP kinase site), biotinylated]", "values": [
      {"measurement": "koff", "setting": "[1]", "value": 0.000534, "unit": "s⁻¹"},
      {"measurement": "kon", "setting": "[1]", "value": 17300, "unit": "M⁻¹ s⁻¹"}
    ]},
    {"binder": "Biotin-CTPRRCLGSLVFPRKLQGRPSPGPPA (cysteine pairing not given here, Human NOS3, N-terminal MAP kinase (NtMAP) site with the S114 site; source: synthetic peptide, bought: Biomatik)", "note": "[NtMAP peptide (NOS3 N-terminal MAP kinase site)]", "values": [
      {"measurement": "Kd", "setting": "[2]", "value": 31, "unit": "nM"},
      {"measurement": "koff", "setting": "[2]", "value": 0.00053, "unit": "s⁻¹"},
      {"measurement": "kon", "setting": "[2]", "value": 17000, "unit": "M⁻¹ s⁻¹"}
    ]},
    {"binder": "Active GST-JNK1α1 (SignalChem), biotinylated (enzyme, UniProt P45983-2 1-384, looked up, active (phosphorylated) form; biotinylated by amine crosslinking to NHS-LC-LC-biotin, 5 : 1 molar ratio of biotin to protein, also called c-Jun N-terminal kinase; source: bought: SignalChem (Lot #X561-2)) MSRSKRDNNFYSVEIGDSTFTVLKRYQNLKPIGSGAQGIVCAAYDAILERNVAIKKLSRPFQNQTHAKRAYRELVLMKCVNHKNIIGLLNVFTPQKSLEEFQDVYIVMELMDANLCQVIQMELDHERMSYLLYQMLCGIKHLHSAGIIHRDLKPSNIVVKSDCTLKILDFGLARTAGTSFMMTPYVVTRYYRAPEVILGMGYKENVDLWSVGCIMGEMVCHKILFPGRDYIDQWNKVIEQLGTPCPEFMKKLQPTVRTYVENRPKYAGYSFEKLFPDVLFPADSEHNKLKASQARDLLSKMLVIDASKRISVDEALQHPYINVWYDPSEAEAPPPKIPDKQLDEREHTIEEWKELIYKEVMDLEERTKNGVIRGQPSPLAQVQQ", "values": [
      {"measurement": "koff", "setting": "[3]", "value": "6.19e-05", "unit": "s⁻¹"}
    ]},
    {"binder": "B1", "values": [
      {"measurement": "Kd", "setting": "[4]", "value": 15, "unit": "nM"},
      {"measurement": "koff", "setting": "[4]", "value": "6.2e-05", "unit": "s⁻¹"},
      {"measurement": "kon", "setting": "[4]", "value": 4110, "unit": "M⁻¹ s⁻¹"}
    ]},
    {"binder": "B2", "values": [
      {"measurement": "KD (fit without the 400 nM trace)", "setting": "[5]", "value": 18, "unit": "nM"}
    ]}
  ]
}
